In the DeepSol protein solubility set:

Assay: soluble on expression in E. coli; label from the status in PepcDB or PDB records

Sequence | soluble on expression in E. coli
MADEKMSEFTDEELNKKVKELQDAVIEKVRTEAETPAVSGGYPGSNAYRPELDRVPSREEILERISWLREMIDDILKPKPSDFDPLIEKTEKLRDLFGVESHQPGGDSRLRNIDTSKNAIQQWDGAFADNLAEKYFAPLEDVRGNHGRMAKVLNENAVAMKATYVHARGQAKRTLDDGVKAIEAIVDSKGSDLKILLAILTGATSLITPLLPSKTAVQLGSAGLSTLLSNLGEAGPEEQEEVPLGADTPEGVMDNVKEALEKVKTKRGEDEDSIIKAVNDSEKAIYERMTKSTHQTEDDPIYAPRPTIMDSSKPSEGLTKD | not soluble
MADFARSLSITTPEEMIEKAKGETAYLPCKFTLSPEDQGPLDIEWLISPADNQKVDQVIILYSGDKIYDDYYPDLKGRVHFTSNDLKSGDASINVTNLQLSDIGTYQCKVKKAPGVANKKIHLVVLVK | soluble
MADILLLDNVDSFTYNLVDQLRASGHQVVIYRNQIGAEVIIERLQHMEQPVLMLSPGPGTPSEAGCMPELLQRLRGQLPIIGICLGHQAIVEAYGGQVGQAGEILHGKASAIAHDGEGMFAGMANPLPVARYHSLVGSNIPADLTVNARFGEMVMAVRDDRRRVCGFQFHPESILTTHGARLLEQTLAWALAK | soluble
MADIPLSGKPRTQVLRWQRQNWVAGLRWEEKQKSVRRAPVQRRGVLNVVLTVKQGKSRLTALGQIEAGWRHQKLYSLAALFSQQCTPNGYGVYQLDDGRQVFLATVKGMPSPMADVIGTPDQIIRARELFLSFNPAPEDGWTIPSSPEFPLSWNTLVGQVSSAQLRFARVAGVSNPLRPYGAGVLSVAALLGGAVWWSRLPEPPVAPVVQELPAPVQDVFKKTPEPVYLPHPWADMPVARHFLNRCQRWRAAVPVSLDRWRLERIRCSAEGLETVYQRQPGGTAAGFAERVKQVFKRTPVFNLVSGGNEGVVFIPWAKFTLQDETAPDAGTQLMQAVSWFQSRQVSFSLSLEHHHHHH | not soluble
MADKSADIQTPAPAANTSISATQQPAIQQPNVSGTVWIRQKVALPPDAVLTVTLSDASLADAPSKVLAQKAVRTEGKQSPFSFVLSFNPADVQPNARILLSAAITVNDKLVFITDTVQPVINQGGTKADLTLVPVQQTAVPVQASGGATTTVPSTSPTQVNPSSAVPAPTQYLEHHHHHH | soluble
MADLLNVLKDKLSGKNVKIVLPEGEDERVLTAATQLQATDYVTPIVLGDETKVQSLAQKLDLDISNIELINPATSELKAELVQSFVERRKGKATEEQAQELLNNVNYFGTMLVYAGKADGLVSGAAHSTGDTVRPALQIIKTKPGVSRTSGIFFMIKGDEQYIFGDCAINPELDSQGLAEIAVESAKSALSFGMDPKVAMLSFSTKGSAKSDDVTKVQEAVKLAQQKAEEEKLEAIIDGEFQFDAAIVPGVAEKKAPGAKLQGDANVFVFPSLEAGNIGYKIAQRLGGYDAVGPVLQGLNSPVNDLSRGCSIEDVYNLSIITAAQALQ | not soluble
MADLLPPLTAAQVDAKTKVDEKVDYSNLPSPVPYEELHREALMSLKSDNFEGLRFDFTRALNQKFSLSHSVMMGPTEVPAQSPETTIKIPTAHYEFGANYYDPKLLLIGRVMTDGRLNARLKADLTDKLVVKANALITNEEHMSQAMFNFDYMGSDYRAQLQLGQSALIGATYIQSVTNHLSLGGEIFWAGVPRKSGIGYAARYETDKMVASGQVASTGAVVMNYVQKISDKVSLATDFMYNYFSRDVTASVGYDYMLRQARVRGKIDSNGVASALLEERLSMGLNFLLSAELDHKKKDYKFGFGLTVG | not soluble
MADLPSISLITATYNAAQHLPGLIESVRQQSDRAFEWIVIDGASEDGTLDLIRGAQDVITDYVSEPDFGIFHALNKGIQRATGDYYLVVGADDRLDPLAIANYKQAAASSQADLISAYIYSEKKAIIKPTGGAIWHHGVQAFITTQSVGTLIKRNLHEHYGYYSHYYPTAADALFILKVQQGGGKITTAEFIAGQYNTKGFSYRYKANLLCELFLIQKEFFPKSIQLLLLIYRLIKNYRYLLEHHHHHH | not soluble
MADPKGFLTTPREEWPRRPAGERVRDWDEVYVPGALLPIVGRQADRCMDCGVPFCHEACPLGNLIPEWNDLVSRSDWRAASERLHATNNFPEFTGRLCPAPCEAGCVLAINQPAVTIKNVECAIADTAWEEGFVPPLPPERLSGRTVAVIGSGPAGLAAAQQLTRAGHTVAVYERDDRIGGLLRYGIPAFKMEKRHLERRVGQMRAEGTRFRTSAAVGRDVDAAALRTRYDAVVIATGATAWRELTVPGRELAGVHQAMEYLPLANRVCEGDLERSPLSAAGRHVVVVGGGDTGADCLGTAVREGAASVTQLDIYARPGAERDERAEPWPTYPRLYRLSAAHEEARDLRSAPAADADARLFAASTLRFTGDERGHVRALHLVGVDTGRRPLPGSERSLPADLVLLALGFSGPDRHDGLVDGLGLDMEPRGTITRDRGFATNVPGVFAAGDAARGQSLVVWAIAEGRAVAAAVDRHLSGGSTRLPAPVGPYDRPMTALEHHHHHH | not soluble
MADPNGFLNYPRNDNPYRELAERIKDFAELQVPLSTEERQKQAARCMHCDVPFCHQGIFYGGKRAVSGCPNDNHIPEWNDLIYRGLQRKAYERLILTNPFPEFTGRVCPAPCEKSCAEALNGAGVTIKDNERFLGDLGNDEGWVAEIGKAAEPTGYKIAIIGSGPAGLSAAWRLNQLGHSVTVFEKSDRLGGLLMYGIPNMKLDKKVVQKRIDLMTELGVTFVTNTEIGKTISYEDLSVNFDRIILAIGAGIPRDLNISGREAVGIRFAIDFLTETTKTVLEEGEDNISQSLKGKKVVVIGGGDTGNDCIGTAVRLGAASVSQLEITPSLPTDRLDNNPWPEWPMTLRAGYGQKEAEFVGNTDLITYQMTATAFQTNAEGQLTGLKVAKVGPDFKALEGTEQVIEADLVLLAMGFVGTDTGLLDKFGIQEIYDDYRTNNDKVLVAGDARRGPSLVIWAIREGRKTAEIVDEQLIKVATALEHHHHHH | soluble
MADTEGTSSSIPTSTNSSRHRASRGRGGRFRQAPRQVGANTADNLDAAPLMNPRGGHRGGSGNKRGRGQKEATSASRLQMQPEANFTFNPNAATFNPAQSVLFDPSVPPPTIGASTHSNQNSRQQEPSQNRRRRGGQQNTQRRQLEIQEQRGDSHPQNQSRQNNRNQLNVDRIANQQNKSVQNPSRNPGNSRRGQGARRREQKEEPLTEEETKILADKPLREGLVYLLENNKYECAICYTRITTRQGVWSCKTCYHIFHISTGCITDWARSSRDKEGANTWRCPTCQTENETMPYNYYCFCGRMRNPNFRVGEVPHSCGETCGGARKFGCPHPCTELCHPGPCIECKLFTTKSCNCGKTKKSVRCGSDQEVMCETVCGKQLSCGQHNCERICHSGDCGECTVILEQDCFCGKTPKEVSCNPCAHEKYSCGSECDGMFSCGIHHCTKKCHDKECGECETGANRIRTCPCGRNTLQSLGVTRKKCTDMVPTCDSVCDKWLTCGTPGKNHHCREKCHEGPCPPCNLNTSVICRCGTSKGVIPCDEYLQIMKTTGEYLCTKRCRKKKSCGMHKCQEVCCIQDEHFCLQMCNKRLSCGIHTCENVCHAGQCRPCLQASFDEQFCHCGHTVRMPPIPCGARLPVCSQPCVRPHSCDHSVSHKCHGEQNCPPCTQLTEKMCYGGHRVRKNIPCHIDSVSCGVVCKKPLKCGVHVCQRTCHGEECEKEGEKCTKKCETIRELCEHPCALPCHEDSPCEPSPCKASVRISCECGRIKKDAPCCEVDKMILSKLEKEEEEKSESDGEEKVVKEGILKRSTSFSQLNCMKCDDECKKLERNRKVAEALEVDTDEYGMNKLAPTISFPCYLKEMVRTNIDFVKSVEKILIDLVIQILSGEAYHDTFRAHLPAMSIEKRRFVHEYANFFNIASESVDSPPKRSIVLTAVRGKSHQPLVLISDLVNYKGALKTPGPAVIRKDIMDQALSKKEETEGLMKPLRCTEKMVVRREARPMKEITAPIPLKQQNQFALLGSDVDSDDEESNVPTTSNLVSSPPKDWWKDEEEGWQKVQQKEYVVEVERDMTEDEIEAAKKLDEGPTWEDQCDEDAPATETSSAIESPAKEEPVAELLE | soluble
MADTSCKLKPLCFRFVSTLKSPIAVITVTYSPGKYLASFLDSLPGATSRDTHVVMADNGSVDGVPEQAAASRSNVEFLSTGGNLGYGTAINIAARSLRARREAGEIDGEFFLVSNPDVVFDEDSIDQLLECAKRHPEAGAVGPLIREADGSAYPSARAVPTLANGIGHALLGAVWKSNPWSAAYRDDEDMDTERTAGWLSGSCLLLRWDAFDRVGGFDERYFMYMEDVDLGDRLVRAGFTNVFCPSAQIIHAKGHVAGKNPENMLPAHHESAYRFQADRLAKPWQAPIRLALRIGLKLRAGVAVGVSKMRTKASLEHHHHHH | not soluble
